This is an account of results in patent publication US20230322953A1 (HARBOUR BIOMED SHANGHAI, published 2023).

Changes are numbered by the printed parent chain.

The labels stand for the following.
T1: human BCMA (human, UniProt Q02223 1-184)
T1 construct: whole, on cells; also called hBCMA; TNFRSF17
T1 sequence (looked up): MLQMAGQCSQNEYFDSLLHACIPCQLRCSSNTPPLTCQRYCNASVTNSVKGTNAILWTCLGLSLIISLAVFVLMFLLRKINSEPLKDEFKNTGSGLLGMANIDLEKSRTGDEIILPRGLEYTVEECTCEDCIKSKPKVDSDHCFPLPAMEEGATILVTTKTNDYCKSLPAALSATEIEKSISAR

B1: PR001995 (bispecific antibody, IgG1)
chain 1: EVQLLESGGGLVQPGGSLRLSCAASGFTFNTYAMNWVRQAPGKGLEWVSRIRSKYNNYATYYADSVKDRFTISRDDSKSTLYLQMNSLRAEDTAVYYCVRHGNFGNSYVSWFAYWGQGTLVTVSSASTKGPSVFPLAPSSKSTSGGTAALGCLVKDYFPEPVTVSWNSGALTSGVHTFPAVLQSSGLYSLSSVVTVPSSSLGTQTYICNVNHKPSNTKVDKKVEPKSC
chain 2: QAVVTQEPSLTVSPGGTVTLTCRSSTGAVTTSNYANWVQQKPGQAPRGLIGGTNKRAPWTPARFSGSLLGDKAALTLLGAQPEDEAEYFCALWYSNLWVFGGGTKLTVLGQPKAAPSVTLFPPSSEELQANKATLVCLISDFYPGAVTVAWKADSSPVKAGVETTTPSKQSNNKYAASSYLSLTPEQWKSHRSYSCQVTHEGSTVEKTVAPTECSDKTHTCPPCPAPEAAGGPSVFLFPPKPKDTLMISRTPEVTCVVVDVSHEDPEVKFNWYVDGVEVHNAKTKPREEQYNSTYRVVSVLTVLHQDWLNGKEYKCKVSNKALGAPIEKTISKAKGQPREPQVYTLPPCREEMTKNQVSLWCLVKGFYPSDIAVEWESNGQPENNYKTTPPVLDSDGSFFLYSKLTVDKSRWQQGNVFSCSVMHEALHNHYTQKSLSLSPGK
chain 3: EVQLLESGGGLVQPGGSLRLSCAASGFTFSSYAMIWVRQAPGKGLEWVSGISESGGSTYYADSVKGRFTISRDNSKNTLYLQMNSLRAEDTAVYFCVKDLDDILTGYYKDYWGQGTLVTVSSASEPKSSDKTHTCPPCPAPEAAGGPSVFLFPPKPKDTLMISRTPEVTCVVVDVSHEDPEVKFNWYVDGVEVHNAKTKPREEQYNSTYRVVSVLTVLHQDWLNGKEYKCKVSNKALGAPIEKTISKAKGQPREPQVCTLPPSREEMTKNQVSLSCAVKGFYPSDIAVEWESNGQPENNYKTTPPVLDSDGSFFLVSKLTVDKSRWQQGNVFSCSVMHEALHNHYTQKSLSLSPGK
notes: CD3 of PR000511, BCMA VH of PR000940; IgG1 knob/hole, AAG
B2: PR001999 (bispecific antibody, IgG1)
chain 1: QAVVTQEPSLTVSPGGTVTLTCRSSTGAVTTSNYANWVQQKPGQAPRGLIGGTNKRAPWTPARFSGSLLGDKAALTLLGAQPEDEAEYFCALWYSNLWVFGGGTKLTVLGGGQSGQGGSGGGGSEVQLVESGGGLVQPGGSLKLSCAASGFTFNTYAMNWVRQASGKGLEWVGRIRSKYNNYATYYADSVKDRFTISRDDSKSTLYLQMNSLKTEDTAVYYCVRHGNFGNSYVSWFAYWGQGTLVTVSSASEPKSSDKTHTCPPCPAPEAAGGPSVFLFPPKPKDTLMISRTPEVTCVVVDVSHEDPEVKFNWYVDGVEVHNAKTKPREEQYNSTYRVVSVLTVLHQDWLNGKEYKCKVSNKALGAPIEKTISKAKGQPREPQVYTLPPCREEMTKNQVSLWCLVKGFYPSDIAVEWESNGQPENNYKTTPPVLDSDGSFFLYSKLTVDKSRWQQGNVFSCSVMHEALHNHYTQKSLSLSPGK
chain 2: B1 chain 3
notes: CD3 scFv of PR000510, BCMA VH of PR000940; IgG1 knob/hole, AAG
B3: PR001998 (bispecific antibody, IgG1)
chain 1: B1 chain 1
chain 2: B1 chain 2
chain 3: EVQLVETGGGLIQPGGSLRLSCAASGFTVSDNYMTWVRQAPGKGLEWVSVIFSGGNTYYADSVKGRFTISRDNAKNTLYLQMNSLRAEDTALYYCARRNYDDTRGTDVFDIWGQGTMVTVSSASEPKSSDKTHTCPPCPAPEAAGGPSVFLFPPKPKDTLMISRTPEVTCVVVDVSHEDPEVKFNWYVDGVEVHNAKTKPREEQYNSTYRVVSVLTVLHQDWLNGKEYKCKVSNKALGAPIEKTISKAKGQPREPQVCTLPPSREEMTKNQVSLSCAVKGFYPSDIAVEWESNGQPENNYKTTPPVLDSDGSFFLVSKLTVDKSRWQQGNVFSCSVMHEALHNHYTQKSLSLSPGK
notes: BCMAxCD3, Fab(cross Fd/LC)-Fc-VH (structure 13); CD3 of PR000511, BCMA VH of PR001046; IgG1 knob/hole, AAG
B4: PR001996 (bispecific antibody, IgG1)
chain 1: B1 chain 1
chain 2: B1 chain 2
chain 3: EVQLVETGGGLIQPGGSLRLSCAASGFPVSSNYMSWVRQAPGKGLEWVSVIFSGGRTYYADSVKGRFTISRDNSKNTLYLQMNSLRAEDTAVYYCARRNWIDGRDAFDIWGQGTMVTVSSASEPKSSDKTHTCPPCPAPEAAGGPSVFLFPPKPKDTLMISRTPEVTCVVVDVSHEDPEVKFNWYVDGVEVHNAKTKPREEQYNSTYRVVSVLTVLHQDWLNGKEYKCKVSNKALGAPIEKTISKAKGQPREPQVCTLPPSREEMTKNQVSLSCAVKGFYPSDIAVEWESNGQPENNYKTTPPVLDSDGSFFLVSKLTVDKSRWQQGNVFSCSVMHEALHNHYTQKSLSLSPGK
notes: BCMAxCD3, Fab(cross Fd/LC)-Fc-VH (structure 13); CD3 of PR000511, BCMA VH of PR000943; IgG1 knob/hole, AAG
B5: PR001997 (bispecific antibody, IgG1)
chain 1: B1 chain 1
chain 2: B1 chain 2
chain 3: B4 chain 3 with P28T, S35T, R56S, N99I, W100A, I101V, D102A, R104H, A106V
notes: BCMAxCD3, Fab(cross Fd/LC)-Fc-VH (structure 13); CD3 of PR000511, BCMA VH of PR001035; IgG1 knob/hole, AAG
B6: PR003870 (bispecific antibody, human IgG1, lambda, L234A L235A)
light: QAVVTQEPSLTVSPGGTVTLTCRSSTGAVTTSNYANWVQQKPGQAPRGLIGGTNKRAPWTPARFSGSLLGDKAALTLLGAQPEDEAEYFCALWYSNLWVFGGGTKLTVLGQPKAAPSVTLFPPSSEELQANKATLVCLISDFYPGAVTVAWKADSSPVKAGVETTTPSKQSNNKYAASSYLSLTPEQWKSHRSYSCQVTHEGSTVEKTVAPTECS
heavy: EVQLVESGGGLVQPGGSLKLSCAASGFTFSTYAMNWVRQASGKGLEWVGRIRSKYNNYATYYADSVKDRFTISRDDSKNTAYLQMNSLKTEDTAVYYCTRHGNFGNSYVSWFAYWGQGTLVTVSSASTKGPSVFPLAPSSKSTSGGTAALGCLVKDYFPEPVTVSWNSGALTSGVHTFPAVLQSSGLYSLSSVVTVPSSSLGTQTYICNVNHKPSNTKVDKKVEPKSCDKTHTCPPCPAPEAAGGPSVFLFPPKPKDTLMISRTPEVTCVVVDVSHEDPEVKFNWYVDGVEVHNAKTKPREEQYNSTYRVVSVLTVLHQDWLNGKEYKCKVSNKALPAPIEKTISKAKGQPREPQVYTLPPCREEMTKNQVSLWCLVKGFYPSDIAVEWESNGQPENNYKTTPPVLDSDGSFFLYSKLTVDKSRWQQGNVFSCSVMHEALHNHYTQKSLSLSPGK
chain: B3 chain 3 with N32A, Y59V, A60S, D102Q, R104I, G238P
notes: BCMAxCD3, Fab-Fc-VH (structure 11); CD3 Fab of PR003886, BCMA VH of PR004565; IgG1 knob/hole, LALA
B7: PR003874 (bispecific antibody, human IgG1, lambda, L234A L235A)
light: B6 light
heavy: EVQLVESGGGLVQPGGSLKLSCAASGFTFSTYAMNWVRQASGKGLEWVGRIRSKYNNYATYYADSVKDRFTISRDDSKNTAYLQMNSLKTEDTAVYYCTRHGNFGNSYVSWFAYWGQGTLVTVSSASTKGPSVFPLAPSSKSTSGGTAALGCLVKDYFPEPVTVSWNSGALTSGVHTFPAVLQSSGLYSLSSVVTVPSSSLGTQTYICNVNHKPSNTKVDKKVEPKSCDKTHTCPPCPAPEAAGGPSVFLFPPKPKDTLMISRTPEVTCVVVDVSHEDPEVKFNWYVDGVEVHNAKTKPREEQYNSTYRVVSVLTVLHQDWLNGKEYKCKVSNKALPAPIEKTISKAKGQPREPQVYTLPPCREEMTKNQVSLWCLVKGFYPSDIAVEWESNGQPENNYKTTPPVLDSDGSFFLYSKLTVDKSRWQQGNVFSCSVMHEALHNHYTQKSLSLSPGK
chain: B3 chain 3 with N32S, N56R, A60S, D102Q, G238P
notes: BCMAxCD3, Fab-Fc-VH (structure 11); CD3 Fab of PR003886, BCMA VH of PR004569; IgG1 knob/hole, LALA
B8: PR003872 (bispecific antibody, human IgG1, lambda, L234A L235A)
light: B6 light
heavy: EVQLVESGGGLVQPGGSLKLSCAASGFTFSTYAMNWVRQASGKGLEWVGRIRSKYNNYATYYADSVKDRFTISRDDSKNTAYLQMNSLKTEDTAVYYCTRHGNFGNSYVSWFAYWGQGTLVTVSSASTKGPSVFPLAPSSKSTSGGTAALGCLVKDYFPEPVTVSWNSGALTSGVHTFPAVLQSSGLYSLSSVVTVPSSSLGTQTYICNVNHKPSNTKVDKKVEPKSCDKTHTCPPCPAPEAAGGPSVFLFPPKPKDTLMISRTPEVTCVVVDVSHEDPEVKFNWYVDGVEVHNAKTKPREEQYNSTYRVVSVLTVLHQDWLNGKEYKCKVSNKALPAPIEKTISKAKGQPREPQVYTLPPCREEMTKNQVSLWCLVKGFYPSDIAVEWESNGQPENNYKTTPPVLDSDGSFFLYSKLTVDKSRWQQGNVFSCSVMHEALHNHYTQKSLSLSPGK
chain: B3 chain 3 with N32S, N56K, Y59V, D102Q, G238P
notes: BCMAxCD3, Fab-Fc-VH (structure 11); CD3 Fab of PR003886, BCMA VH of PR004567; IgG1 knob/hole, LALA

The assay addresses T1, human BCMA. Kind of assay: FACS on NCI-H929 cells.
Description: This example is intended to investigate the binding activity of anti-BCMA HCAb antibodies to human and cynomolgus monkey BCMAs. […] Specifically, HEK293T/hBCMA cells and HEK293T/cyno BCMA cells were digested and resuspended in a DMEM complete medium. In addition, NCI-H929 cell suspension was collected. The density of each of the three cells was adjusted to 1×10⁶ cells/mL. […] The cells were incubated at 4° C. for 1 h away from light. Thereafter, the cells in each well were rinsed twice with 100 μL of pre-cooled PBS, and centrifuged at 500 g at 4° C. for 5 min, and then the supernatant was discarded. […] The cells in each well were rinsed twice with 100 μL of pre-cooled PBS, and centrifuged at 500 g at 4° C. for 5 min, and then the supernatant was discarded. Finally, the cells in each well were resuspended in 200 μL of pre-cooled PBS. Fluorescence signal values were read using a BD FACS CANTOII flow cytometer or an ACEA NovoCyte flow cytometer, and the data were processed and analyzed using FlowJo v10 (FlowJo, LLC) software. The data were processed and analyzed by plotting using GraphPad Prism 8 software, and binding curves of the antibodies to target cells, EC₅₀ values and other parameters were obtained through four-parameter nonlinear fitting.
For B1, the “Maximum MFI” value came out at 2590. Regarding B2, the “Maximum MFI” value came to 3480. The same measure, in the same setting: for B3 the value was 3260. With B4, the “Maximum MFI” value was 3320. Regarding B5, the “Maximum MFI” value turned out to be 1460.

As to B6, a half-maximal response (EC50) required 3.3 nM and the “Maximum MFI” value was 10600. In the case of B7, it took 1.5 nM to reach a half-maximal effect (EC50) and the “Maximum MFI” value was 11000.

Turning to B8, the EC50 came to 1.1 nM and the “Maximum MFI” value is 11300.

In general, EC50 refers to the concentration needed to bring the measured effect to its halfway point. Low values mean higher potency in that assay, high ones lower potency in that assay.
